Substrate in series [1]: Nc1ncnc2c1ncn2[C@@H]1O[C@H](COP(=O)(O)OP(=O)(O)OP(=O)(O)O)[C@@H](O)[C@H]1O
The experiment in a line: PFK2 assay, fru-2,6-P2 quantified by activation of potato PPi-PFK, spectrophotometric. The series is classed as biochemical, Thermothelomyces thermophilus. Particulars: co-substrate F6P. An excerpt:
PFK2 assay, fru-2,6-P2 quantified by activation of potato PPi-PFK, spectrophotometric on PFK2-C

Substrate in series [2]: O=P(O)(O)OC[C@H]1O[C@@](CO)(OP(=O)(O)O)[C@@H](O)[C@@H]1O
The experiment in a line: FBPase-2 assay, product/substrate by LC-MS/MS. Particulars: pH 7, 30 °C, 1 mM ATP, 2 mM MgCl2, 5 mM KPi. It is filed as biochemical, Thermothelomyces thermophilus. The source says:
FBPase-2 assay, product/substrate by LC-MS/MS on PFK2-A

This note sets out measurements from publication PMC9721465, “PFK2/FBPase-2 is a potential target for metabolic engineering in the filamentous fungus Myceliophthora thermophila” (Frontiers in Microbiology, 2022).

Broadly, the Km is the substrate concentration at which the rate is half of its maximum.

B1: PFK2-C (Thermothelomyces thermophilus ATCC 42464) (protein)
chain: MPEPLQPSFFHVAASGSDPRPSESACQREDAAVAPQSSSLTLRKLAMSHRMGATASDPSSPTIQAIGDSHHGAETHPLHSVLPSPALTNALKESLRTAGAGQSGPPIGVPNGLHFDSPYSRSISSTAPGSPRIPPVRQNSGSHTPRIRPHATTLNIPGMTRSRASPDGRIPDRDVAAKLVIIMVGLPARGKSYITKKIQRYLSWQQHNTKIFNVGNRRRIAAGMVNPTDASPTNAANGHDVPSQAATILSKGTKGPDIVVEEPTALDLNKGKPVPKMDQSAAFFDPKNEAAAKLREQVALDTLDELLTYLLHQGGAVGILDATNSTIQRRKLLVERIKAREPKLGILFIESVCHDQNLLEANMRLKLFGPDYKDQDPHMALEDFKKRVAAYESAYEPLGKWEEDNDLQYIQMIDVGRKIIQHRLRGFLSGGIVSYLTTFNLSPRQIWITRHGQSEDNRAHRLGGDSELTERGHYYGQALYNFITYKRKEWLIQQKNKIASSNFPPQPGDNTPPYPELFQELDDKNFCVWTSMLKRSIETAEYFEADDDYDVKAWEMLNEMNAGAFEGMTYEEIAEKYPEEFEKRARDKLQYIYPGLGGEGYLQIISRLRDMVREIERITDHVLIIGHRSVCRVLMAYFMDLTRDDIADLDMPLGMLYAIEPKPYGIEFHAYKYNEETFWFDELPNYKPRKTVDRNS
notes: pET28a expression in E. coli (BL21/Rosetta DE3), His-Trap purified; cDNA-encoded
As for B1, the Michaelis constant (Km) in series [1] turned out to be 940 ± 150 µM.

B2: PFK2-A (Thermothelomyces thermophilus ATCC 42464) (protein)
chain: MAPKINGTGVMPEDTRICVVMVGLPARGKSYIAQRAQRYLKWLSIPAKTFNVGNYRRKDAPHPSADFFDTNNAEGERQRRAAANAAVTDMIQWFKTGGVVGILDATNSTKERRKWVLERLSKEGIEVLFVESKCDDEELIMANIRDVKTTSPDYQGQDPEQAALDFRERIRHYEKVYKSINDDNDEDHLTYLKIMNVGKKVFINRIQDYLQSRVVYFLMNLHIRPRSVWLSRHGESEYNLEGRIGGDSLLSHRGEEYARKLPELVRQSVGSDRPLTVWTSTLKRTIATARHLPKHYNQLQWKALDELDAGVCDGLTYQEIADQYPEDFQARDEDKYNYRYRGGESYRDVVIRLEPIIMELERSENILIISHQAVIRCIYAYFMQKPQEESPWVPVPLHTLIKLTPRAYDTLVEKYDAKIKAVSTWRGKGSTAKHEDPTPEGGI
notes: pET32a expression in E. coli Rosetta (DE3), His-Trap purified; cDNA-encoded
Take B2: the Km in series [2] came out at 3810 ± 220 µM.
